Measured values: article PMC6122996 (The Journal of Cell Biology, 2018)
Positions count from the first letter of the chain named.

T1: recombinant WT full-length Nde1, not phosphorylated (dephospho-Nde1) (mouse, UniProt Q9CZA6 1-344)
T1 sequence (looked up): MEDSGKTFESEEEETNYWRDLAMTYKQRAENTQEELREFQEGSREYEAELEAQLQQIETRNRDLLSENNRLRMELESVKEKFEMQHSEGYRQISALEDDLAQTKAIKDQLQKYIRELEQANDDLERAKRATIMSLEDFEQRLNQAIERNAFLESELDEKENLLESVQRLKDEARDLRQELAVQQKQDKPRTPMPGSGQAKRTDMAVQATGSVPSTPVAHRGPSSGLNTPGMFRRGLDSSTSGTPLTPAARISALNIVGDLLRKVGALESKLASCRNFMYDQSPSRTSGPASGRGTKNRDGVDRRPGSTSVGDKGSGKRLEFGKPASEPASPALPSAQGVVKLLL

B1: GFP-Nde1-3E (triple phosphomimetic Nde1) (natural protein, mouse, UniProt Q9CZA6 1-344, looked up)
chain: T1 sequence (looked up) with T215E, T243E, T246E
B2: GST-CENP-F-NBD (GST-tagged CENP-F fragment containing its Nde1-binding domain) (domain or fragment, human, UniProt P49454 2122-2297, looked up)
chain: EKLRVRIEADEKKQLHIAEKLKERERENDSLKDKVENLERELQMSEENQELVILDAENSKAEVETLKTQIEEMARSLKVFELDLVTLRSEKENLTKQIQEKQGQLSELDKLLSSFKSLLEEKEQAEIQIKEESKTAVEMLQNQLKELNEAVAALCGDQEIMKATEQSLDPPIEEEH

Key:
CENP-F = CENP-F (UniProt P49454); test: anti-GFP co-immunoprecipitation; details: reference: GFP WT Nde1; sites T215,T243,T246
[1] = target: B2; test: pull-down
[2] = target: T1, recombinant WT full-length Nde1, not …; test: pull-down

## Nde1 (from UniProt Q9CZA6) GFP-Nde1-3A
CENP-F
  binding against the reference: weaker

## B1
[1]
  fold level pulled down against Nde1-3A: 2.5 fold

## B2
[2]
  binding result: binds
